Laboratory results as given in patent publication US20200232972A1, “METHOD FOR SCREENING ANTI-AGING SUBSTANCES” (Shiseido Company, Ltd., priority 2017, published 2020).

B1: RSPO4: Homo sapiens R-spondin family, member 4 protein, purchased (Serotec, R&D SYSTEMS), candidate senescence factor (protein, UniProt Q2I0M5 20-234, looked up)
R-spondin-4: LNRRKKQVGTGLGGNCTGCIICSEENGCSTCQQRLFLFIRREGIRQYGKCLHDCPPGYFGIRGQEVNRCKKCGATCESCFSQDFCIRCKRQFYLYKGKCLPTCPPGTLAHQNTRECQGECELGPWGGWSPCTHNGKTCGSAWGLESRVREAGRAGHEEAATCQVLSESRKCPIQRPCPGERSPGQKKGRKDRRPRKDRKLDRRLDVRPRQPGLQP
B2: IGFBP7: Homo sapiens insulin-like growth factor binding protein 7 protein, purchased (Serotec, R&D SYSTEMS), candidate senescence factor (protein, UniProt Q16270 27-282, looked up)
Insulin-like growth …: SSSDTCGPCEPASCPPLPPLGCLLGETRDACGCCPMCARGEGEPCGGGGAGRGYCAPGMECVKSRKRRKGKAGAAAGGPGVSGVCVCKSRYPVCGSDGTTYPSGCQLRAASQRAESRGEKAITQVSKGTCEQGPSIVTPPKDIWNVTGAQVYLSCEVIGIPTPVLIWNKVKRGHYGVQRTELLPGDRDNLAIQTRGGPEKHEVTGWVLVSPLSKEDAGEYECHASNSQGQASASAKITVVDALHEIPVKKGEGAEL

Tested on: young fibroblasts (MMP1 and collagen expression)
Assay: Addition of senescence factor proteins to young fibroblasts: MMP1 and collagen gene expression by RT-PCR
Type: cell-based, Homo sapiens
Settings: protein added at 10 μg/ml vs 0 μg/ml, 2 days; for MMP1 expression: FIG. 4(A); for expression of collagen (Collagen 1 gene): FIG. 4(B)
Procedure: Dermal fibroblasts established from skin from the back of an adult were cultured in Dulbecco's Modified Eagle Medium supplemented with 10% FBS. Cells with a culture period of less than 1 month and Pdl<30 were used as normal fibroblasts (young fibroblasts). These cells were cultured for 3 months or more and cells which began to proliferate more slowly (doubling time less than 0.5/week and Pdl>50) were used as senescent cells. Normal fibroblasts were inoculated on the upper layer of a 6-well transwell system (Falcon; Franklin Lakes, N.J.) filled with Dulbecco's Modified Eagle Medium supplemented with 10% FBS until the density was 1250 cell/cm^2. Subconstructed senescent fibroblasts and normal fibroblasts were separately inoculated in two wells of the lower layer of the transwell system. The upper layer and the lower layer of the transwell system were combined and cultured for 2 days at 37° C. in a humidified atmosphere with 5% CO2, and the cells in the upper layer and the lower layer were recovered using Qiazole (Qiagen).
RNA was extracted from the recovered cell lysate using RNeasy Protect Kit (Qiagen) by following the instructions therefor, then Superscript VILO (Invitrogen) was used to reverse transcribe the RNA into cDNA by following the instructions. Using 28SrRNA as an internal standard, real time PCR was performed with LightCycler (commercially available) using the primer pairs for the following genes. The cycle threshold (Ct value) calculated by Lightcycler software ver. 3.5 was normalized for GAPDH mRNA of each sample.
The proteins of the candidate senescence factors (IGFBP7 and RSPO4) (purchased from Serotec, R&D SYSTEMS) were added to the culture medium for culturing the young fibroblasts at a concentration of 0 μg/ml and 10 μg/ml. After culturing for 2 days, the cells were then separately recovered using Qiazole (Qiagen). In the same way as disclosed in the section relating to quantitative RT-PCR, the expression levels of MMP1 and collagen were examined in the recovered cell lysate.

Molecule | MMP1 expression | expression of collagen (Collagen 1 gene)
B1 | increased | reduced
B2 | increased | reduced
